Reference: paper PMC3798461

Key:
[1] = target: mLANA_(140–314) (murine gammaherpesvirus 68 (MHV-68)); assay: SEC; purified mLANA DBD truncations analysed by size exclusion chromatography; oligomeric state from the elution volume
[2] = target: mLANA_(140–272), C-terminal DNA-binding domain of murine gammaherpesvirus 68 latency-associated nuclear antigen (murine gammaherpesvirus 68 (MHV-68)); assay: as above
[3] = test system: mLANA124-314 WT (Murine gammaherpesvirus 68 (MHV-68, MuHV-4)); assay: ITC; conditions: EMSA: 20 mM Tris-HCl pH 7.5, 50 mM KCl, 10 mM MgCl2, 1 mM EDTA, 20 ug/mL poly(dI-dC), 0.1 mM DTT, 10% glycerol, RT; ITC: 25 mM Na/K phosphate pH 7.0, 150 mM …
[4] = test system: mLANA124-272 WT (Murine gammaherpesvirus 68 (MHV-68, MuHV-4)); assay: SPR; conditions: 5' biotin with TTTTT spacer; EMSA: 20 mM Tris-HCl pH 7.5, 50 mM KCl, 10 mM MgCl2, 1 mM EDTA, 20 ug/mL poly(dI-dC), 0.1 mM DTT, 10% glycerol, RT; ITC: 25 mM Na/K phosphate pH 7.0, 150 mM …

mLANA_(140–314) (domain or fragment)
stoichiometry N [1]: 4

mLANA_(140–272), C-terminal DNA-binding domain of murine gammaherpesvirus 68 latency-associated nuclear antigen (domain or fragment)
stoichiometry N [2]: 2

mLBS1 for ITC and SEC (no spacer)
Kd [3]: 66 nM

mLBS1 SPR ligand (biotin-TTTTT-mLBS1)
Kd [4]: 169 nM
